One data set concerns the target T1, Sc.Ara1 (Saccharomyces cerevisiae, UniProt P38115).
T1 construct: N-terminal His tag (pET28a)
The experiment in a line: dehydrogenase activity, microplate. The data set is classed as biochemical. The settings on record: NAD+ or NADP+, 10 mM cofactor, 10 mM sugar; 37 °C.

The next data set concerns the target T2, Bm.Fdh (Burkholderia multivorans, UniProt A0A0H3KNE7).
T2 construct: gene BMULJ_04919; N-terminal His tag (pET28a)
The data set is described as follows: dehydrogenase activity, microplate. The data set is classed as biochemical. The settings on record: NAD+ or NADP+, 10 mM cofactor, 10 mM sugar; 37 °C.

For another data set, the target named is T3, Pc.TadH (Trinickia caryophylli, UniProt A0A1X7DDC2).
T3 construct: gene SAMN06295900_10348; N-terminal His tag (pET28a)
T3 sequence (A0A1X7DDC2 1-334): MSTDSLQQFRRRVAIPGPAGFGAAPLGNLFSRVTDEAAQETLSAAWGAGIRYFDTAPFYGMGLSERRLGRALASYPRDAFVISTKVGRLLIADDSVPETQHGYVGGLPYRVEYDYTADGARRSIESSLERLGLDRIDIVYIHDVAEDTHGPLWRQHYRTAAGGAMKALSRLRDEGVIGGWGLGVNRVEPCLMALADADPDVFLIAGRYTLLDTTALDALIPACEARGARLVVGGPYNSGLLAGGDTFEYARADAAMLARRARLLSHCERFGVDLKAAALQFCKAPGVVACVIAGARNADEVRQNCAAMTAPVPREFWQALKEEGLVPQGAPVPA
The data set is described as follows: dehydrogenase activity, microplate. The data set is classed as biochemical. The settings on record: NAD+ or NADP+; 37 °C.

The target in a further data set is T4, Ec.FucO (Escherichia coli, UniProt P0A9S1).
T4 construct: expressed from pEXT20 in E. coli TW64; protein extract
T4 sequence (P0A9S1 1-382): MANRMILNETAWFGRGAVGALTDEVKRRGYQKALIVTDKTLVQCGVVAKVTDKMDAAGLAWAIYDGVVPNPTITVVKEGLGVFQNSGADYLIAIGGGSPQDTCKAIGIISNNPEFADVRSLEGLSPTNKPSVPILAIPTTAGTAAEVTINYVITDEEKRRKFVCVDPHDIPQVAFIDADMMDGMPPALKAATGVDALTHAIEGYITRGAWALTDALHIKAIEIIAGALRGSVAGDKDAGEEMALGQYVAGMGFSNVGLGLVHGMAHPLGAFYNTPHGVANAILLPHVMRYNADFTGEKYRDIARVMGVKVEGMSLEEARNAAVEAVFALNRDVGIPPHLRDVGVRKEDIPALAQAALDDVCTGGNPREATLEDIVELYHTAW
The experiment in a line: ethylene glycol dehydrogenase activity in protein extract; empty-plasmid extract inactive. The data set is classed as biochemical. The settings on record: 50 mM ethylene glycol; NAD+.

Another data set concerns the target T5, Go.Adh (Gluconobacter oxydans, UniProt Q5FU50).
T5 construct: gene GOX0313; expressed from pEXT20 in E. coli TW64; protein extract
T5 sequence (Q5FU50 1-343): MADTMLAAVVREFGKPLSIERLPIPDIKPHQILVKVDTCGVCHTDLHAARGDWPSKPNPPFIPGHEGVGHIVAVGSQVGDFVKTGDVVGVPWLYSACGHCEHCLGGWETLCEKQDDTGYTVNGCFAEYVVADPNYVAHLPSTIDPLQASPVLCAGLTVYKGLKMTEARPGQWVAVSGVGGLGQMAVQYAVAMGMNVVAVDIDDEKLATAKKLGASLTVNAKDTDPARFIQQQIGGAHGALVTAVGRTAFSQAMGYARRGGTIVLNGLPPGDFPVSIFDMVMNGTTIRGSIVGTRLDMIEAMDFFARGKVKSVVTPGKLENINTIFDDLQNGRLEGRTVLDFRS
The description is as above. The data set is classed as biochemical. The settings on record: 50 mM ethylene glycol; NAD+.

The test system of the next data set is T6, Hh.AraD.
T6 construct: gene E2K99_19880
The settings on record: 37 °C.

Substrate in the data set “purified protein”: O=C(O)[C@@H](O)[C@H](O)CO
The experiment in a line: purified protein. The settings on record: 37 °C.

Substrate in data set [1]: C[C@H](O)[C@H]1OC(=O)[C@@H](O)[C@@H]1O
The experiment in a line: lactonase kinetics, Michaelis-Menten fit. The data set is classed as biochemical, Thermogutta terrifontis. The settings on record: 37 °C.

Substrate in data set [2]: O=C1OC[C@@H](O)[C@@H]1O
The experiment in a line: lactonase kinetics, Michaelis-Menten fit. The data set is classed as biochemical, Thermogutta terrifontis. The settings on record: 37 °C.

This note sets out measurements from article PMC10079672, “Construction of a synthetic metabolic pathway for biosynthesis of 2,4-dihydroxybutyric acid from ethylene glycol” (Nature Communications, 2023).

T2 sequence (A0A0H3KNE7 whole entry): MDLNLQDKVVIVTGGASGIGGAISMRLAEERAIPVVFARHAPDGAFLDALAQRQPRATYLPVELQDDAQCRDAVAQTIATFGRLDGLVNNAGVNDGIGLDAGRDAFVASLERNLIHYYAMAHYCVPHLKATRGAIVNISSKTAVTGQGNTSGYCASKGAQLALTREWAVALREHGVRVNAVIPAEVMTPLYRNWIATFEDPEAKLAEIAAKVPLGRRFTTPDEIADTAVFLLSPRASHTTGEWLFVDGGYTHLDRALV

With `O=C[C@@H](O)[C@H](O)CO` [D-threose], the specific activity entry was “Sc.Ara1, Pc.TadH and Bm.Fdh displayed measurable activity on D-threose” on Sc.Ara1; “Sc.Ara1, Pc.TadH and Bm.Fdh displayed measurable activity on D-threose” at Bm.Fdh. Further, the “specific activity (no saturation up to 50 mM)” value at Pc.TadH was “Sc.Ara1, Pc.TadH and Bm.Fdh displayed measurable activity on D-threose”.
With `OCCO` [ethylene glycol], the activity result at Ec.FucO and on Go.Adh was “all candidate enzymes were active on EG” throughout.
For the molecule `O=C(O)[C@@H](O)[C@H](O)CO` [D-threonate], the Km in the data set on Hh.AraD is 1210 µM.

B1: Aa.AraD (Paracidovorax avenae ATCC 19860) (protein)
chain: MSTDALATQSLLILNDRDNVAVARTELGAGMELRLAGGEVLEVMATVPAGHKIALRPIAKGDAVLKYGQVIGAASTPIGAGEHVHVHNVEMGDSSPTHLVGRAYVPTDPVEQPATFMGYVRADGRVGTRNYIGVISSVNCSATVCKAIAQAFTGPALGAYPGVDGVVAITHGTGCGMSGEGEGIELLRRTLSGYIAHPNFAAVLVIGLGCEVNQVEGLTGRLPLPEGRVRTMTIQDAGGTREAIAQGIDIVRDMAAAASGARRTQVPASHLVVGLQCGGSDGYSGISANPVLGAAVDMLVRHGGTAILSETPEIYGAEHLLTARAASAEVAERLMARLAWWEAYTQRNGANMNNNPSPGNKAGGITTILEKSLGAVAKGGGSGLMDVVEYAQPVHSRGLVFMDTPGYDPVSATGQVAGGANLICFTTGRGSTYGCKPTPSLKLATNTALFRNMGMDMDFNAGDVVDGTLGIAQAGRHLFELMLATASGDRTLSETHGLGDNEFVPWQLGAVM
Take B1: in “purified protein”, the Km is listed as 1.95 (±0.53) mM, the Vmax was determined as 0.12 µmol/min/mg and the Vmax/Km stood at 62 µL/min/mg.

B2: Tt.Lac11 (Thermogutta terrifontis) (protein)
chain: MRKLLGSSAIHVLSRRTGYGMYFLILALGVATQVVFGAEPSQNPSEKVAWIERADPGLDDLIAPDAQVEVLAEGFEWSEGPVWIPEGGYLLFSDVPKNTIYRWKEGQGIDIFLKPSGYTGFRERGGESGSNGLALDRQGRLLLCQHGDRRVARWEKGCFITLADQYEGKPLNSPNDLVVKSNGDIYFTDPPYGMTPEAQRDPNALGFCGVYRISADGKLTLLVRDMTRPNGIAFSPDEKTLYVAQSDPQRPLWMAFPVREDGTLGEGKVFFDAKPWQQSGLPGLPDGMKVDQKGNLFATGPGGVNIFRPDGTFLGRIRVKVPTANCAFGDDGSTLYITADMYLLRVKTKTKGLGF
notes: full-length with predicted N-terminal signal peptide; hexa-His tag (pET28a)
For the molecule B2, in [1], the Km is recorded as 0.84 (±0.06) × 10^-3 M. Further, in data set [2], the Km is 2.92 (±0.13) mM, the Vmax came out at 1.76 µmol/min/mg and the Vmax/Km was 603 µL/min/mg.

By Vmax is commonly meant the rate approached at saturating substrate.
